This is an account of results in article PMC10707181, “Neuronal Scaffold Protein ARMS Interacts with Synaptotagmin-4 C2AB through the Ankyrin Repeat Domain with an Unexpected Mode” (International Journal of Molecular Sciences, 2023).

The target in assay [1] is T1, Syt4 C2AB (residues 151–425) (human, UniProt Q9H2B2-1 151-425).
T1 construct: also called Syt4 CAB; source: E. coli BL21 (DE3), purified (Ni-NTA, size-exclusion chromatography)
T1 sequence (looked up): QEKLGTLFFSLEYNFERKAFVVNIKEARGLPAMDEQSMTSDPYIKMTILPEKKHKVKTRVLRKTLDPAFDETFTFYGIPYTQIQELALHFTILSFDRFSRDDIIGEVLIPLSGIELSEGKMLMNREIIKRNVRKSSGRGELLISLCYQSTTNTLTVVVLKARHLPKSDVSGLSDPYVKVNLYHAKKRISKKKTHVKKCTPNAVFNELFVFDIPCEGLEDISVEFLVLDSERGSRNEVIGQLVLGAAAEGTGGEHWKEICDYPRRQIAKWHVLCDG
Description: ITC; ARMS proteins (200 μM) in the syringe, Syt4 proteins (20 μM) in the cell; 25 °C; 50 mM Tris, 100 mM NaCl, 1 mM EDTA, 1 mM DTT, pH 7.8; one-site binding model. Conditions: both partners purified. Background: ITC needs no label: the signal is the heat of the interaction.

In assay [2] the target is T2, full length of the cytoplasmic region of Syt4 (CD, residues 41–425) (human, UniProt Q9H2B2-1 41-425).
T2 construct: also called Synaptotagmin-4 CD; source: E. coli BL21 (DE3), purified (Ni-NTA, size-exclusion chromatography)
T2 sequence (looked up): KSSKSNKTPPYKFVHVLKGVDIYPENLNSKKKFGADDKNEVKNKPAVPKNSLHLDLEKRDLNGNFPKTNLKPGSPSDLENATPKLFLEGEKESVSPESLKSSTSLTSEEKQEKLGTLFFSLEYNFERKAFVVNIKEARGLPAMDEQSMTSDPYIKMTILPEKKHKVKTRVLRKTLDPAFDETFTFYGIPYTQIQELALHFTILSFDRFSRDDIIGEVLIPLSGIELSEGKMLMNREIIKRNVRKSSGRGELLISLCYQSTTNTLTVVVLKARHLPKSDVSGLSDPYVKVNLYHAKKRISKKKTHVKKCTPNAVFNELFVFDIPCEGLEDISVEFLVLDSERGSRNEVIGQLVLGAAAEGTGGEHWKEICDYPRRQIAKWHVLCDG
Described as above. Conditions: both partners purified.

The target of a further assay is T3, Syt4 132-425 R283A (Homo sapiens).
T3 chain: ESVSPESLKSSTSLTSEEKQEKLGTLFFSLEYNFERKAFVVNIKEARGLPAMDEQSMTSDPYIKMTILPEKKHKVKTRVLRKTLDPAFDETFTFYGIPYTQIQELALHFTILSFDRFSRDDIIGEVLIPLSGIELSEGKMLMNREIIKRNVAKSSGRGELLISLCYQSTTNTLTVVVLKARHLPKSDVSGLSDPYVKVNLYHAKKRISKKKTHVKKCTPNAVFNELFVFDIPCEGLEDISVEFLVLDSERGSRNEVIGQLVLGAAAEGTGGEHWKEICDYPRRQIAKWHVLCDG
Description: ITC.

The next assay has as its target T4, Syt4 132-425 K279A,R280A (Homo sapiens).
T4 chain: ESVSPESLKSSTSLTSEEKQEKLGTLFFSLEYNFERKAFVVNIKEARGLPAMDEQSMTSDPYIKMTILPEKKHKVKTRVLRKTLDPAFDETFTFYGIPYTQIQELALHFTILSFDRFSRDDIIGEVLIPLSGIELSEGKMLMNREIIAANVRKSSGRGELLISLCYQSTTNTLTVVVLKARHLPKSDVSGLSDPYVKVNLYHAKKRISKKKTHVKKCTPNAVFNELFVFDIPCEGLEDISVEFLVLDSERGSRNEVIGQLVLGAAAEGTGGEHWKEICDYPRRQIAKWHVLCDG
Description: ITC.

For another assay, the target named is T5, Syt4 132-425 R283A,K284A (Homo sapiens).
T5 chain: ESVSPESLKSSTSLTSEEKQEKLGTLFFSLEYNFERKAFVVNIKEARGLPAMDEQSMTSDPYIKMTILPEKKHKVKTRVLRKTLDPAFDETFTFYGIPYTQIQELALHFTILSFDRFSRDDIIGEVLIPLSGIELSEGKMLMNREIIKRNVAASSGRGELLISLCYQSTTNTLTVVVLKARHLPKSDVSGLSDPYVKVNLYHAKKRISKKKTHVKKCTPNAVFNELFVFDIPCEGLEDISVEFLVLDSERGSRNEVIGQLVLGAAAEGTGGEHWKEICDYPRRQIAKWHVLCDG
Description: ITC.

Another assay addresses T6, Syt4 132–425 K284A (human, UniProt Q9H2B2-1 132-425, K284A).
T6 sequence: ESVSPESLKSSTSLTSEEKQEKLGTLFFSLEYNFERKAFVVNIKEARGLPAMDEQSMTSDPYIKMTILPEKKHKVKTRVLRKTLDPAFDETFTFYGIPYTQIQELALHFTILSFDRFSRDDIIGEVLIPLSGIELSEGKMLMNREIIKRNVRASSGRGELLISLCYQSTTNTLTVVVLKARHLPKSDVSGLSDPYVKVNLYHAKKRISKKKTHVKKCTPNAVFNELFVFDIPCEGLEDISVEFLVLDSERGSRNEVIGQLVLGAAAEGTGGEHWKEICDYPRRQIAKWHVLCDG
Description: ITC.

In another assay the target is T7, Syt4 132–425 Q186A (human, UniProt Q9H2B2-1 132-425, Q186A).
T7 sequence: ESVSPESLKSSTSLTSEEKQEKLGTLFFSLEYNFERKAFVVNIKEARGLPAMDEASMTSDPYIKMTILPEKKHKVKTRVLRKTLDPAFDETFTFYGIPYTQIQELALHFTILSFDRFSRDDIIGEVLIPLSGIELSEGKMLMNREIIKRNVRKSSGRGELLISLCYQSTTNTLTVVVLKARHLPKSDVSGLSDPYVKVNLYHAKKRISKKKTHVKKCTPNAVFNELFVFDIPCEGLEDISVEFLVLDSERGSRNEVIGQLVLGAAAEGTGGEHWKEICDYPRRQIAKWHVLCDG
Description: ITC.

The target in another assay is T8, Syt4 132-425 R288A (Homo sapiens).
T8 chain: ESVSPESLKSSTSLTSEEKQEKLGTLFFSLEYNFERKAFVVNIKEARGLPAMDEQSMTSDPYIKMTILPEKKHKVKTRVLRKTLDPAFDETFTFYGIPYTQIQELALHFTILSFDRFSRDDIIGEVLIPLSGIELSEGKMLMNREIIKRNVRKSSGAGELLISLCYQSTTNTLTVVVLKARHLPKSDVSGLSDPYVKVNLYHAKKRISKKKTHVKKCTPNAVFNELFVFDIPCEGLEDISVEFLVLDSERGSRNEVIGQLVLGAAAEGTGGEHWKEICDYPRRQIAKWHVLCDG
Description: ITC.

The target of another assay is T9, Syt4 132–425 (human, UniProt Q9H2B2-1 132-425).
T9 chain: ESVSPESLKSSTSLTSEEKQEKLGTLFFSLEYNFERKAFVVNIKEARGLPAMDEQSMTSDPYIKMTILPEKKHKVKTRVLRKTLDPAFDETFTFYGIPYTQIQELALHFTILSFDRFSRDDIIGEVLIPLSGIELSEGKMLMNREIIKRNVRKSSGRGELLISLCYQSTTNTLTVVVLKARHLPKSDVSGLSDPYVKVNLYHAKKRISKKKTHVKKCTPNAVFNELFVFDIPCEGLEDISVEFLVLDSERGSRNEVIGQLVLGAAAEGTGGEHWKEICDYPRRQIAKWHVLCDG
Description: ITC.

Assay [3] deals with T10, Syt4 132-425 K279A,R280A,R283A (Homo sapiens).
T10 chain: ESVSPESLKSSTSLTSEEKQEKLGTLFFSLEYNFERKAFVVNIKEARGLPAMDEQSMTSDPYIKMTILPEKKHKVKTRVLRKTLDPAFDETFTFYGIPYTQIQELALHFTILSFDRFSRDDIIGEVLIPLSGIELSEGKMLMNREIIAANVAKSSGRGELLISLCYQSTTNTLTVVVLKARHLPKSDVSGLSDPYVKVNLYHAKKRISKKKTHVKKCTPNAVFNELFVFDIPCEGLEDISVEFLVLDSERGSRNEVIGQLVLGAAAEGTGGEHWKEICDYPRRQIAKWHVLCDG
Description: ITC.

B1: ARMS R1-8 (residues 1–270) (domain or fragment, rat, UniProt Q9EQG6 1-270, looked up)
chain: MSVLISQSVINYVEEENIPALKALLEKCKDVDERNECGQTPLMLAAEQGNVEIVKELLKNGANCNLEDLDNWTALISASKEGHIHIVEELLKSGASLEHRDMGGWTALMWACYKGRTDVVELLLSHGANPSVTGLYSVYPIIWAAGRGHADIVHLLLQNGAKVNCSDKYGTTPLVWAARKGHLECVKHLLAMGADVDQEGANSMTALIVAVKGGYTQSVKEILKRNPNVNLTDKDGNTALMIASKEGHIEIVQDLLDAGTYVNIPDRSGD
notes: ARMS (Kidins220), rat, UniProt Q9EQG6, residues 1-270: ankyrin repeats 1-8; also called ARMS ankyrin repeats 1–8; source: E. coli BL21 (DE3), purified (Ni-NTA, size-exclusion chromatography)
For the molecule B1, in assay [1], the Kd is around 11 µM.

B2: ARMS ankyrin repeats 1–11 (R1-11, residues 1–365) (domain or fragment, rat, UniProt Q9EQG6 1-365, looked up)
chain: MSVLISQSVINYVEEENIPALKALLEKCKDVDERNECGQTPLMLAAEQGNVEIVKELLKNGANCNLEDLDNWTALISASKEGHIHIVEELLKSGASLEHRDMGGWTALMWACYKGRTDVVELLLSHGANPSVTGLYSVYPIIWAAGRGHADIVHLLLQNGAKVNCSDKYGTTPLVWAARKGHLECVKHLLAMGADVDQEGANSMTALIVAVKGGYTQSVKEILKRNPNVNLTDKDGNTALMIASKEGHIEIVQDLLDAGTYVNIPDRSGDTVLIGAVRGGHVEIVRALLQKYADIDIRGQDNKTALYWAVEKGNATMVRDILQCNPDTEICTKDGETPLIKATKMRNIEVVELLLDKGAKVSAVD
notes: ARMS (Kidins220), rat, UniProt Q9EQG6, residues 1-365: ankyrin repeats 1-11; also called ARMS R1-11; ARMS R1-11 WT; source: E. coli BL21 (DE3), purified (Ni-NTA, size-exclusion chromatography)
For the molecule B2, the Kd was around 11 µM in [2]; 4 µM with Syt4 132-425 R283A; 9 µM with Syt4 132-425 K279A,R280A; 4 µM with Syt4 132-425 R283A,K284A; 3 µM in the assay with Syt4 132–425 K284A; 3 µM in the assay with Syt4 132–425 Q186A. For the same molecule, the Kd stood at 10 µM with Syt4 132-425 R288A, 12 µM with Syt4 132–425 and 19 µM in [3].

For orientation: Kd means the constant that tells how readily two partners part at equilibrium. Low readings indicate a tighter complex, high ones a looser complex.
